How the values were obtained:
chromogranin A (CgA) = target: T1, chromogranin A (CgA) (Homo sapiens, UniProt P10645 P10645:19-457); experiment: capillary electrophoresis specificity control; settings: tags: N-terminal His-tag; full length, Creative BioMart CHGA-26904TH; label: 5' TYE665
T1 sequence: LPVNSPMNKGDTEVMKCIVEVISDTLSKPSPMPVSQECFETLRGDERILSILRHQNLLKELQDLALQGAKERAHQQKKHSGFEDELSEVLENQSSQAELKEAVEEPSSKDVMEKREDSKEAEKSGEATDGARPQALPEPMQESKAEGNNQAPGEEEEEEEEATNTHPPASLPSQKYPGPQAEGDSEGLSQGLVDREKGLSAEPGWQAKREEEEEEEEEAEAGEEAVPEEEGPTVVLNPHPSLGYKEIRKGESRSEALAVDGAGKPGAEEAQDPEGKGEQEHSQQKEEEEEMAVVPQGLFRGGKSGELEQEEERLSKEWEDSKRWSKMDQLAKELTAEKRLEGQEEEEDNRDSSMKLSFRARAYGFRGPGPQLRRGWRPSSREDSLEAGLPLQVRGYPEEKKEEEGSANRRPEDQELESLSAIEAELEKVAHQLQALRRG
Method: (§1) Reaction solutions containing the labeled aptamer (SEQ ID NO: 1) were prepared. Each of the reaction solutions was subjected to CAE under the following conditions. The reaction solution was caused to migrate while separating the components therefrom, and the fluorescence at a maximum absorption wavelength (665 nm) of the fluorescent substance was measured. As the reaction solutions, the following four types of reaction solutions were used: a reaction solution 1 containing the labeled aptamer only; a reaction solution 2 containing the labeled aptamer and the α-amylase; a reaction solution 3 containing the labeled aptamer and the saliva; and a reaction solution 4 containing the labeled aptamer as the negative control and the saliva. In each of the reaction solutions, the concentration of the labeled aptamer was 200 nmol/L. In the reaction solution 2, the concentration of the α-amylase was 2 μmol/L. In the reaction solutions 3 and 4, the concentration of the saliva was 10%. The reminder of each of the reaction solutions was a buffer solution. The composition of the buffer solution was as follows: 40 mmol/L HEPES (pH 7.5), 125 mmol/L NaCl, 5 mmol/L KCl, and 1 mmol/L MgCl₂.
(§2) Preparation of the reaction solution 2 and the binding ability analysis by CAE were carried out in the same manner as in the above item (3), except that the labeled aptamers (SEQ ID NOs: 1, 2, 3, and 19) were used. Further, in order to examine the specificity of the labeled aptamers to the α-amylase, the binding ability analysis by CAE was performed in the same manner as in the case where the above-described reaction solution 2 was used, except that, instead of the α-amylase, human chromogranin A (CgA, recombinant full length protein, Creative BioMart, #CHGA-26904TH) or human IgA (secretory, Biomedicals, LLC-Cappel Products, #55905), each having a His-tag fused at the N terminus were used.

alpha-amylase [1] = target: T2, alpha-amylase (Homo sapiens, UniProt P0DUB6 P0DUB6:16-511); experiment: capillary electrophoresis; 200 nM aptamer, 2 uM amylase, 1 mM MgCl2; settings: tags: none stated; commercial human alpha-amylase, Lee Biosolutions; label: 5' TYE665
T2 sequence: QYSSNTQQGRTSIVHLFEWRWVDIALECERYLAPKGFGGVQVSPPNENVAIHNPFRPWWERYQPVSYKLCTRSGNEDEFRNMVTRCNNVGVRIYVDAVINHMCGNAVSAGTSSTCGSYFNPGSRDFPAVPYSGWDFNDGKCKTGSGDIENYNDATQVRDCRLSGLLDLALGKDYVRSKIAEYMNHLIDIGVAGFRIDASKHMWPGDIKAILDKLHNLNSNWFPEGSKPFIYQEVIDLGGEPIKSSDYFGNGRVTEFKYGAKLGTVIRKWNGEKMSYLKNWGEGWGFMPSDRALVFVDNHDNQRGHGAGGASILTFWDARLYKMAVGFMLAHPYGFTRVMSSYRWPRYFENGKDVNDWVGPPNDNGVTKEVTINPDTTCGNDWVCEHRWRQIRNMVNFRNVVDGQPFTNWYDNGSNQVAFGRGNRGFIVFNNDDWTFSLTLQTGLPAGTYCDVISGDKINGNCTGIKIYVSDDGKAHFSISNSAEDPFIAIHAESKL
Method: as §1, §2

alpha-amylase [2] = target: T2, alpha-amylase; experiment: SPR; SPR buffer with 1 mM MgCl2, pH 7.4; Chi2 18.8; settings: tags: none stated; commercial human alpha-amylase, Lee Biosolutions; label: 3' poly(dA)20 captured on biotin-poly(dT)20
Method: (§3) Biotinylated poly(dT) at 5 μmol/L was injected to a flow cell of the sensor chip using ultrapure water (DDW), and the binding was allowed to proceed until the signal intensity (RU: Resonance Unit) reached about 900 RU. The biotinylated poly(dT) was prepared by biotinylating the 5′ end of 20-mer deoxythymidine. Then, the poly(dA)-added aptamer at 200 nmol/L was injected to the flow cell of the chip using an SPR buffer at a flow rate of 25 μL/min for 80 seconds, and the binding was allowed to proceed until the signal intensity reached about 800 RU. […] With 0 seconds being the start of the injection, the mean value of signal intensities from 115 seconds to 125 seconds was determined. […] Then, the value (B/A) obtained by dividing the protein binding measured value (B) by the aptamer immobilization measured value (A) was determined as a relative value (Relative Unit).
(§4) The binding ability of the aptamers was analyzed by SPR in the same manner as in Example 1, except that the concentration of the α-amylase in the specimen was set to a plurality of values. The concentration was set to 20 nmol/L, 10 nmol/L, 5 nmol/L, 2.5 nmol/L, and 1.25 nmol/L. Then, from the results obtained by the SPR analysis, the kinetic parameter and the chi-squared value were calculated.

alpha-amylase [3] = target: T2, alpha-amylase; experiment: SPR; 400 nM amylase, 1 mM MgCl2, pH 7.4; settings: tags: none stated; commercial human alpha-amylase, Lee Biosolutions; label: 3' poly(dA)20 captured on biotin-poly(dT)20
Method: The analysis of the binding ability was carried out using a ProteON XPR36 (BioRad) in accordance with its instructions for use.
First, as a sensor chip designed specifically for the ProteON, a streptavidin-immobilized chip (trade name: ProteOn NLC Sensor Chip, BioRad) was set in the ProteON XPR36. Biotinylated poly(dT) at 5 μmol/L was injected to a flow cell of the sensor chip using ultrapure water (DDW), and the binding was allowed to proceed until the signal intensity (RU: Resonance Unit) reached about 900 RU. The biotinylated poly(dT) was prepared by biotinylating the 5′ end of 20-mer deoxythymidine. Then, the poly(dA)-added aptamer at 200 nmol/L was injected to the flow cell of the chip using an SPR buffer at a flow rate of 25 μL/min for 80 seconds, and the binding was allowed to proceed until the signal intensity reached about 800 RU. […] Subsequently, the specimen was injected using the SPR buffer at a flow rate of 50 μL/min for 120 seconds, followed by washing performed by flowing the SPR buffer under the same conditions for 300 seconds. The concentration of the human α-amylase in the specimen was set to 400 nmol/L. Signal intensity measurement was performed concurrently with the injection of the specimen and the washing with the SPR buffer. With 0 seconds being the start of the injection, the mean value of signal intensities from 115 seconds to 125 seconds was determined. […] Then, the value (B/A) obtained by dividing the protein binding measured value (B) by the aptamer immobilization measured value (A) was determined as a relative value (Relative Unit).

alpha-amylase [4] = target: T2, alpha-amylase; experiment: SPR; SPR buffer with 1 mM MgCl2, pH 7.4; Chi2 24.85; settings: tags: none stated; commercial human alpha-amylase, Lee Biosolutions; label: 3' poly(dA)20 captured on biotin-poly(dT)20
Method: as §3, §4

alpha-amylase [5] = target: T2, alpha-amylase; experiment: SPR; SPR buffer with 1 mM MgCl2, pH 7.4; Chi2 29.33; settings: tags: none stated; commercial human alpha-amylase, Lee Biosolutions; label: 3' poly(dA)20 captured on biotin-poly(dT)20
Method: as §3, §4

alpha-amylase [6] = target: T2, alpha-amylase; experiment: SPR; SPR buffer with 1 mM MgCl2, pH 7.4; Chi2 23.63; settings: tags: none stated; commercial human alpha-amylase, Lee Biosolutions; label: 3' poly(dA)20 captured on biotin-poly(dT)20
Method: as §3, §4

alpha-amylase [7] = target: T2, alpha-amylase; experiment: SPR; SPR buffer with 1 mM MgCl2, pH 7.4; Chi2 5.18; settings: tags: none stated; commercial human alpha-amylase, Lee Biosolutions; label: 3' poly(dA)20 captured on biotin-poly(dT)20
Method: as §3, §4

alpha-amylase [8] = target: T2, alpha-amylase; experiment: SPR; 40 mM HEPES pH 7.4, 125 mM NaCl, 5 mM KCl, 1 mM MgCl2, 0.01% Tween 20; Chi2 2.68; settings: tags: none stated; commercial human alpha-amylase, Lee Biosolutions; label: 3' poly(dA)20 captured on biotin-poly(dT)20
Method: as §3, §4

alpha-amylase [9] = target: T2, alpha-amylase; experiment: SPR; SPR buffer with 1 mM MgCl2, pH 7.4; Chi2 5.69; settings: tags: none stated; commercial human alpha-amylase, Lee Biosolutions; label: 3' poly(dA)20 captured on biotin-poly(dT)20
Method: as §3, §4

alpha-amylase [10] = target: T2, alpha-amylase; experiment: SPR; SPR buffer with 1 mM MgCl2, pH 7.4; Chi2 17.73; settings: tags: none stated; commercial human alpha-amylase, Lee Biosolutions; label: 3' poly(dA)20 captured on biotin-poly(dT)20
Method: as §3, §4

B1: TYE665-AML1243KR8m3 (ssDNA)
DNA: GGATACCTTAACGCCGCCTATTGCGAGGTGTGGCTAGTCGTTATAGGTCCACCGAGTTGCACCCGTCTCGAAATC
modifications: KS9 modified T (formula 1) at underlined T, i.e. T 3' of the 5' primer region
Chromogranin A (CgA)
  binding result: no binding
alpha-amylase [1]
  binding result: binds

B2: AML1243KR8m2s49 (ssDNA)
DNA: GGATACCTTAACGCCGCCTATTGCTATGAGTAGTGTTTGTAGGTCTGGCAAAAAAAAAAAAAAAAAAAA
modifications: KS9 modified T (formula 1) at underlined T, i.e. T 3' of the 5' primer region
alpha-amylase [2]
  Kd: 3.19 nM

B3: AML1243KR8m4 (ssDNA)
DNA: GGATACCTTAACGCCGCCTATTGATTCTCTGTGACTAGTGTTTGTAGGTCGCAGAGTTGCACCCGTCTCGAAATCAAAAAAAAAAAAAAAAAAAA
modifications: KS9 modified T (formula 1) at underlined T, i.e. T 3' of the 5' primer region
alpha-amylase [3]
  binding result: binds

B4: TYE665-AML1243KR8m2 (ssDNA)
DNA: GGATACCTTAACGCCGCCTATTGCTATGAGTAGTGTTTGTAGGTCTGGCATGCGAGTTGCACCCGTCTCGAAATC
modifications: KS9 modified T (formula 1) at underlined T, i.e. T 3' of the 5' primer region
Chromogranin A (CgA)
  binding result: no binding
alpha-amylase [1]
  binding result: binds

B5: AML2243KR8m3 (ssDNA)
DNA: GGATACCTTAACGCCGCCTATTGGTGTCACTAGTGTTTGTCGGTGCCAGCAAGGAGTTGCACCCGTCTCGAAATCAAAAAAAAAAAAAAAAAAAA
modifications: KS9 modified T (formula 1) at underlined T, i.e. T 3' of the 5' primer region
alpha-amylase [3]
  binding result: binds

B6: AML1243KR8m2s49Fw_s20 (ssDNA)
DNA: TACCTTAACGCCGCCTATTGCTATGAGTAGTGTTTGTAGGTCTGGCAAAAAAAAAAAAAAAAAAAA
modifications: KS9 modified T (formula 1) at underlined T, i.e. T 3' of the 5' primer region
alpha-amylase [4]
  Kd: 4.23 nM

B7: AML1243KR8m3s63Fw_s20 (ssDNA)
DNA: TACCTTAACGCCGCCTATTGCGAGGTGTGGCTAGTCGTTATAGGTCCACCGAGTTGCACCAAAAAAAAAAAAAAAAAAAA
modifications: KS9 modified T (formula 1) at underlined T, i.e. T 3' of the 5' primer region
alpha-amylase [5]
  Kd: 16.6 nM

B8: AML1243KR8m5 (ssDNA)
DNA: GGATACCTTAACGCCGCCTATTGAGTTCAACAATGACTAGTGTTTGTCGGTCTGAGTTGCACCCGTCTCGAAATCAAAAAAAAAAAAAAAAAAAA
modifications: KS9 modified T (formula 1) at underlined T, i.e. T 3' of the 5' primer region
alpha-amylase [3]
  binding result: binds

B9: Amy_258KK10R8m3 (ssDNA)
DNA: GGTTACGCCCAGGACACATTTCAGAGCGTAAACAGTCCTGGTTGGCAAATGTGTAAGCTCGGTCTCCTCGGATAATCAAAAAAAAAAAAAAAAAAAA
modifications: KK10 modified T (formula 2) at double-underlined T, i.e. T 3' of the 5' primer region
alpha-amylase [3]
  binding result: binds

B10: AML1243KR8m3s63 (ssDNA)
DNA: GGATACCTTAACGCCGCCTATTGCGAGGTGTGGCTAGTCGTTATAGGTCCACCGAGTTGCACCAAAAAAAAAAAAAAAAAAAA
modifications: KS9 modified T (formula 1) at underlined T, i.e. T 3' of the 5' primer region
alpha-amylase [6]
  Kd: 16.4 nM

B11: TYE665-Amy_258KK10R8m2 (ssDNA)
DNA: GGTTACGCCCAGGACACATTTCATTGATGGCATACTAAGGGTCGAGGAATTCGTAAGCTCGGTCTCCTCGGATAATC
modifications: KK10 modified T (formula 2) at double-underlined T, i.e. T 3' of the 5' primer region
Chromogranin A (CgA)
  binding result: no binding
alpha-amylase [1]
  binding result: binds

B12: AML1243KR8m1s65_FW_s15 (ssDNA)
DNA: TAACGCCGCCTATTGTGAACGACGTGAATAGTGTTTGTGGGTCCGGAGTTGCACCCGAAAAAAAAAAAAAAAAAAAA
modifications: KS9 modified T (formula 1) at underlined T, i.e. T 3' of the 5' primer region
alpha-amylase [7]
  Kd: 0.447 nM

B13: AML1243KR8m1s58_FW_s15 (ssDNA)
DNA: TAACGCCGCCTATTGTGAACGACGTGAATAGTGTTTGTGGGTCCGGAGTTAAAAAAAAAAAAAAAAAAAA
modifications: KS9 modified T (formula 1) at underlined T, i.e. T 3' of the 5' primer region
alpha-amylase [8]
  Kd: 0.358 nM

B14: Amy_258KK10R8m4 (ssDNA)
DNA: GGTTACGCCCAGGACACATTTCTGTAGTGAAGTCCTGGTTGGCAAATTCATGGTAAGCTCGGTCTCCTCGGATAATCAAAAAAAAAAAAAAAAAAAA
modifications: KK10 modified T (formula 2) at double-underlined T, i.e. T 3' of the 5' primer region
alpha-amylase [9]
  Kd: 7.34 nM

B15: AML1243KR8m2s63 (ssDNA)
DNA: GGATACCTTAACGCCGCCTATTGCTATGAGTAGTGTTTGTAGGTCTGGCATGCGAGTTGCACCAAAAAAAAAAAAAAAAAAAA
modifications: KS9 modified T (formula 1) at underlined T, i.e. T 3' of the 5' primer region
alpha-amylase [10]
  Kd: 3.93 nM

Source: patent US20180327746, “Alpha-AMYLASE-BINDING NUCLEIC ACID MOLECULE AND USE THEREOF” (NEC Solution Innovators, Ltd., published 2018)
